This note sets out measurements from US20120035094A1.

The target of test [1] is Monoclonal antibody M.Ab.F11. As to the kind of experiment: platelet adhesion to immobilized M.Ab.F11 (150 ng/well), BCA protein read-out; peptide at 50 µM.
Test [2] deals with Monoclonal antibody M.Ab.F11. Briefly: platelet adhesion to immobilized M.Ab.F11 (150 ng/well), BCA protein read-out; peptide at 500 µM.

In the case of SVTVHSSEPEVRIPENNPVKLSC [F11R-peptide 1], the % inhibition of the adhesion of platelets to immobilized M.Ab.F11 turned out to be 60% in test [1] and 70% in test [2].
Consider KSVTREDTGTYTC [F11R-peptide 4], for which the values for the % inhibition of the adhesion of platelets to immobilized M.Ab.F11 in test [1] and in test [2] were 10% and 70%, respectively.
